First the molecules themselves.
B1: TPR t1 (parent)
chain: GACCAAUCUGCCCUCAGAGCUCGAGAACAUCUUCGGAUGCAGAGGAGGCAGGCUUCGGUGGCGCGAUAGCGCCAACGUCCUCAACCUCCAAUGCAUCCCACCACAUGAUGAUGCCUGAAGAGCCUUGGUUUUUUG

Variants of B1 are the subject of the data set. Put plainly: polymerase ribozyme fitness, log enrichment relative to wild type (log ratio); higher = more active; in vitro selection for triplet polymerase activity. Put shortly: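 Mutant libraries of both subunits of a heterodimeric triplet polymerase ribozyme were PCR-built, transcribed, and selected once in triplicate, with frozen incubation at −7 °C and capture of gel-excised extended constructs on streptavidin beads before RT-PCR. Illumina sequencing of input and output libraries was filtered to genotypes with ≥10 input reads and ≥1 read per output. Fitness is the logarithm of genotype enrichment over wild-type enrichment, using inverse-variance-weighted replicate averages. The logarithm is base 2.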
Turning to C4A C13U A26U G44U C49A C104U, the “polymerase ribozyme fitness (log ratio)” value was -6.34.
Under C4G C86A stands -2.95; under C4A C11G, -1.18; under C4U C11U C104U C115A, -2.94.
Turning to C4G C8G A26G G71A G120U, the “polymerase ribozyme fitness (log ratio)” value is -1.19.
Consider C4G U38A A95U G127C, for which the “polymerase ribozyme fitness (log ratio)” value is -0.148.
As for C4G C11U C13U G47U C72G, the “polymerase ribozyme fitness (log ratio)” value is -5.03.
Regarding C4G G45A C114U, the “polymerase ribozyme fitness (log ratio)” value is -4.45.
Under C4G U78G C80U stands -1.48; under C4G U9A C62G C89A C115A G117C, -5.76.
Consider C4U C20A G120U, for which the “polymerase ribozyme fitness (log ratio)” value is -3.69.
Under C4A G36C G42C C49A C124U stands -4.12; under C4U A18U, -2.35.
As to C4G U9A C56G U112A G117A G120C, the “polymerase ribozyme fitness (log ratio)” value was -6.24.
With C4U C70A, the “polymerase ribozyme fitness (log ratio)” value is -2.42.
C4U C70U: the “polymerase ribozyme fitness (log ratio)” value is -0.878.
Under C3U U87G stands -0.293.
Under C4G C20G G61U G117A stands -4.76; under C4A U59C G69U C115U, -3.99.
Under C3U U55C G120C stands -1.02; under C4G G63U, -1.88; under C4U C13A A46U G52U C73A, -4.74.
As to C4U C8G C34G A46U U59G C62U C102U G113U A121C U131G, the “polymerase ribozyme fitness (log ratio)” value was -6.55.
Under C4G C97A stands -5.92; under C4A C104A, -2.32.
As for C4A G61A G127A, the “polymerase ribozyme fitness (log ratio)” value was -2.92.
Under C4G G45C C70A stands -4.27; under C4A U55C, -2.5.
Under C3U U81G stands -4.04; under C4U A37U C40U A83G, -2.17; under C4G C15A A16U C53A U78C C115U, -3.67.
Take C3U U78C A105U G120C: the “polymerase ribozyme fitness (log ratio)” value is -1.99.
Under C4G U9G C13A C82U A111G stands -2.04.
Under C4U G35C C72U G117C C123U U125A stands -6.14; under C4U C15U, -1.62; under C4G C12A C15A C94A C99U G110C, -6.59.
Consider C4A G45C G120A G127C, for which the “polymerase ribozyme fitness (log ratio)” value is -1.29.
Regarding C4U C34A G71C A83G C98U U112A, the “polymerase ribozyme fitness (log ratio)” value was -5.16.
Regarding C4A C62A U92A U129A, the “polymerase ribozyme fitness (log ratio)” value is -5.8.
Under C4U A41C C56A G63A stands -4.61; under C4U C40U, -1.42.
Consider C4U C72A A91G G117C, for which the “polymerase ribozyme fitness (log ratio)” value was -5.33.
Under C4A U7A stands -0.986; under C4U A100U G117U, -4.99; under C4U C73U, -0.492.
Under C4A C86G stands -2.58; under C4A C86A, -2.74; under C4G A90G C104U, -0.701.
With C4A U21G G44U C82A C124G, the “polymerase ribozyme fitness (log ratio)” value was -3.89.
Under C4A G52A C53A C72U A90U U130C stands -3.37.
For the variant C4A C72U U130A, the “polymerase ribozyme fitness (log ratio)” value is -2.53.
Under C3U U106A stands -0.258; under C4U C8A C12U C79G, -1.25.
Under C4G C13U C53U C115G A121U stands 0.995; under C4U, -0.513.
Under C4A stands -1.19; under C4G, -1.33.
For C4A C70G C79A C114U, the “polymerase ribozyme fitness (log ratio)” value was -5.9.
Under C4G G44C stands -2.96.
For the variant C4A U7G C31G C70G C86U U87C U112A, the “polymerase ribozyme fitness (log ratio)” value was -5.92.
Under C4G A26G U78C C99U C114G U132C stands -5.4.
Consider C4A G36A C73A, for which the “polymerase ribozyme fitness (log ratio)” value was -3.19.
Under C4U C11G C49U G51A C80U C94G stands -2.25; under C4G C115A, -3.11.
Under C4U C8A C28U U59A stands -2.29.
Under C4U A43U U96A stands -3.02; under C4U C13U G19U A95G, -2.99; under C4A C72U U81A G117U G122A U132A, -6.42.
Take C4A G127A: the “polymerase ribozyme fitness (log ratio)” value was -1.82.
Consider C4G C40G C115U, for which the “polymerase ribozyme fitness (log ratio)” value is -3.42.
Under C4G G39A C40U G93A C102A stands -3.57.
Under C4A G93C A111U stands -4.69; under C4A U112A A119U C123U U125C, -0.636; under C4A G60A U78C, -2.08.
Under C4G A24C A100C U112A U116G stands -5.42; under C4U C11A, -1.89.
Regarding C4G U112C, the “polymerase ribozyme fitness (log ratio)” value was -0.0354.
Under C4G U112A stands -0.309.
Under C4U C49U U78A stands -1.36; under C4A G69C, -3.61; under C4A G69U, -0.0821.
Under C4A G117C stands -4.54; under C4U C72A A100U, -1.48.
Take C4U G19A G71A G120C: the “polymerase ribozyme fitness (log ratio)” value was -3.53.
For C4A C72U G117C U131A, the “polymerase ribozyme fitness (log ratio)” value was -5.79.
Under C4G A90U A100C C124U U132C stands -4.88; under C4A G93A, -1.73; under C4G G39U, -3.24.
Under C3U U14A C53G C64U G120A stands 0.544.
Turning to C4G A5C G61U A84C U109A U131G, the “polymerase ribozyme fitness (log ratio)” value is -5.51.
Under C4U C98U G113U stands -3.82.
Under C4A C11G G44C U54C stands -1.66; under C4G U9G G23A G113C, -4.79; under C4A G23A A50G G61C U87C A95G G117U C123G, -6.54.
Under C4U C101G stands -2.06; under C4G G48U C70U, -3.27; under C4U C11A C13U A16C U30G C49A C64G C102G U112G C115A, -7.83.
For the variant C4G C64U, the “polymerase ribozyme fitness (log ratio)” value was -2.5.
In the case of C4G G71A, the “polymerase ribozyme fitness (log ratio)” value is -1.72.
Under C4U G10U G51U C79G stands -3.58; under C4G U9C C15A U55C C73A C79G, -2.6.
Consider C4G U129C, for which the “polymerase ribozyme fitness (log ratio)” value is -1.99.
Under C4U C34G G57A U67C G69A C124U G127C stands -6.05; under C4A G10A C53G G60U C70U A74U C123A U131C, -1.36.
Under C4A C72U U109A C115U stands -6.54.
Under C4A C8A A37U C56A stands -1.7; under C4A G45A G52C, -2.98; under C4G G110A, -2.16.
Turning to C4U A121U, the “polymerase ribozyme fitness (log ratio)” value was 2.23.
C4U C31U G61U C98G C101A C114U: the “polymerase ribozyme fitness (log ratio)” value was -6.59.
Under C4U C15U A43U A46U stands -3.46.
Under C4G C124A stands 0.669; under C4G C56G C64U, -3.26; under C4U A41C, -1.67.
Turning to C4G G44A G60C A111G, the “polymerase ribozyme fitness (log ratio)” value was -3.78.
For the variant C3U U32C C101U G120C, the “polymerase ribozyme fitness (log ratio)” value was -0.584.
Under C4A C114U C124A stands -2.3; under C4U A26G A41U C72U U87G A111C, -4; under C4G C8A C80U C115A G120A U125A, -2.71.
As to C4U C56A, the “polymerase ribozyme fitness (log ratio)” value is -0.607.
With C4A G45A C72A C123A, the “polymerase ribozyme fitness (log ratio)” value is -0.972.
Under C4U C114A G128C stands -4.42; under C4A G48C G61A U81C U96A, -3.76.
For C4G U7G U55A C99U U112G U132C, the “polymerase ribozyme fitness (log ratio)” value is -4.94.
For the variant C4U C97G, the “polymerase ribozyme fitness (log ratio)” value was -3.97.
Under C4U C8G U33G C85G C94U stands -6; under C4G A111U, -3.42; under C4A C53G G77A C80A, -5.1.
Turning to C4A U78C, the “polymerase ribozyme fitness (log ratio)” value is -1.45.
Under C4G C73A A91U stands -3.63; under C4G G69A, -2.97.
Under C4G C72G stands -1.74; under C4A G61A U78A G128U, -1.35; under C4U A43C U125A, -3.11.
Under C3U U14C C62U A118G U129C stands -2.13.
Turning to C4U A16G C49U G69A G71C U78G C82U A84U C115A, the “polymerase ribozyme fitness (log ratio)” value is -6.51.
Under C4G G69C G127A stands -2.67.
Under C4G G10A stands -1.4.
With C4A G61C C79G, the “polymerase ribozyme fitness (log ratio)” value is -3.95.
On to C4G A18C, for which the “polymerase ribozyme fitness (log ratio)” value was -3.16.
Under C4G C73U stands -1.69; under C4A A95U, -1.38.
Under C4A C40U G42C G52U G60A A119U U129A stands -5.41; under C4G U7G C13U G113A, -1.14; under C4G G63U G120U G122U, -1.51.
Under C4A C114G stands -4.25; under C4G C89A, -2.63; under C4G A41U A46C U87G A91U C115A G135U, -4.36.
As to C4G U125G, the “polymerase ribozyme fitness (log ratio)” value turned out to be 0.0157.
Under C4A C88U G120U stands -2.67; under C4G U87A, -2.92; under C4A A5G, -1.02.
With C4G C101A, the “polymerase ribozyme fitness (log ratio)” value was -2.61.
In the case of C4G G44U U96A, the “polymerase ribozyme fitness (log ratio)” value was -4.42.
C4G G10U A18G U59G A83C U87A: the “polymerase ribozyme fitness (log ratio)” value was -4.53.
Under C4A A50G C70U A74G A84C C115A stands -5.12.
For the variant C4G G61C, the “polymerase ribozyme fitness (log ratio)” value was -2.88.
For C4U C12A U59C A66C, the “polymerase ribozyme fitness (log ratio)” value is -2.92.
Under C4G C8G U9G U21G U96G A111U stands -3.56; under C4U C56G C70A, -3; under C4G U9C A43G G47A C70U, -4.92.
Under C4U A6U G45A C80U C101A stands -3.66; under C4G C13A C89A U130C, -3.33; under C4A A74C C123G U133G, 0.795.
Turning to C4G C22U G23A A66U A83G C97G C99U U106A G113U C124A, the “polymerase ribozyme fitness (log ratio)” value was -7.47.
Take C4A C72U: the “polymerase ribozyme fitness (log ratio)” value was -1.93.
As for C3U U54C C104A U131C, the “polymerase ribozyme fitness (log ratio)” value was -2.52.

For the origin of these results see the RNAGym collection of RNA variant scans (doi:10.1073/pnas.2313332121).
